From US20230416357A1 (UCB, published 2023)
Read-outs that look alike come from different tables or passages of the source.

How the values were obtained:
Human IL22 [1] = biological target: T1, Human IL22 (human, UniProt Q9GZX6 34-179); assay: cell-based or functional assay
T1 sequence: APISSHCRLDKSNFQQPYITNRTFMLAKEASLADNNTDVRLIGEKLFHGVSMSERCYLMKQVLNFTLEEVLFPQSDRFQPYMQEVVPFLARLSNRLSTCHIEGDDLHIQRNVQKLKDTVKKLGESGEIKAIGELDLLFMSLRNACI

Human IL22 [2] = biological target: T1, Human IL22; assay: cell-based or functional assay; remark: listed apart in the source
Human IL22 [3] = biological target: T1, Human IL22; assay: cell-based or functional assay; remark: listed apart in the source
Human IL22 [4] = biological target: T1, Human IL22; assay: SPR Biacore 8K; single experiment
Human IL22 [5] = biological target: T1, Human IL22; assay: SPR Biacore T200; antibody captured on anti-human Fab (280 RU), IL22 injected at 20 nM

B1: rabbit 11041 Fab (Fab, V domains shown)
VH: QSVEESGGRLVTPGTPLTLTCTVSGFSLSSYAMIWVRQAPGEGLEWIGIIDIDGSTYYASWAKGRFTISRTSTTVDLKITSPTTGDTATYFCARDRFVGVDIFDPWGPGTLVTVSS
VL: AVVLTQTASPVSAPVGGTVTIKCQASEDIYTNLAWYQQKPGQPPKLLIYWASTLASGVPSRFKGSGSGTEFTLTISDLECADAATYYCQACVYGNSADSRYTFGGGTEVVVK
Human IL22 [1]
  IC50 (M), Geomean; COLO205 IL-10 release assay: 5.68e-11 M

B2: 11041gL13gH14 Fab (Fab, V domains shown)
VH: EVQLVESGGGLVQPGGSLRLSCAVSGFSLSSYAMIWVRQAPGKGLEWIGIIDIEGSTYYASWAKGRFTISRDNSKNTVYLQMNSLRAEDTAVYYCARDRFVGVDIFDPWGQGTLVTVSS
VL: AVQLTQSPSSLSASVGDRVTITCQASEDIYTNLAWYQQKPGKAPKLLIYWASTLASGVPSRFSGSGSGTDFTLTISSLQPEDFATYYCQASVYGNAADSRYTFGGGTKVEIKR
notes: Humanized Fab; also called VR11041
Human IL22 [2]
  IC50 (M), Geomean; COLO205 IL-10 release assay: 4.27e-11 M
Human IL22 [3]
  IC50 (read off the curve), inhibition of IL-22-induced S100A7 release from human primary keratinocytes (NHEK): ~10 nM
Human IL22 [4]
  Kd: < 0.1 nM
Human IL22 [5]
  IL22 Binding at 20 nM (RU): 40 RU
